Columns and labels:
[1] = molecular target: T1, DISC1-FLAG (full-length human DISC1 with a C-terminal FLAG tag) (human, UniProt Q9NRI5 1-854); assay: anti-FLAG immunoprecipitation from stable PC12 cells with or without NGF (50 ng/ml, 24 hours), blot with anti-FEZ1
T1 construct: also called FLAG-tagged DISC1
T1 sequence: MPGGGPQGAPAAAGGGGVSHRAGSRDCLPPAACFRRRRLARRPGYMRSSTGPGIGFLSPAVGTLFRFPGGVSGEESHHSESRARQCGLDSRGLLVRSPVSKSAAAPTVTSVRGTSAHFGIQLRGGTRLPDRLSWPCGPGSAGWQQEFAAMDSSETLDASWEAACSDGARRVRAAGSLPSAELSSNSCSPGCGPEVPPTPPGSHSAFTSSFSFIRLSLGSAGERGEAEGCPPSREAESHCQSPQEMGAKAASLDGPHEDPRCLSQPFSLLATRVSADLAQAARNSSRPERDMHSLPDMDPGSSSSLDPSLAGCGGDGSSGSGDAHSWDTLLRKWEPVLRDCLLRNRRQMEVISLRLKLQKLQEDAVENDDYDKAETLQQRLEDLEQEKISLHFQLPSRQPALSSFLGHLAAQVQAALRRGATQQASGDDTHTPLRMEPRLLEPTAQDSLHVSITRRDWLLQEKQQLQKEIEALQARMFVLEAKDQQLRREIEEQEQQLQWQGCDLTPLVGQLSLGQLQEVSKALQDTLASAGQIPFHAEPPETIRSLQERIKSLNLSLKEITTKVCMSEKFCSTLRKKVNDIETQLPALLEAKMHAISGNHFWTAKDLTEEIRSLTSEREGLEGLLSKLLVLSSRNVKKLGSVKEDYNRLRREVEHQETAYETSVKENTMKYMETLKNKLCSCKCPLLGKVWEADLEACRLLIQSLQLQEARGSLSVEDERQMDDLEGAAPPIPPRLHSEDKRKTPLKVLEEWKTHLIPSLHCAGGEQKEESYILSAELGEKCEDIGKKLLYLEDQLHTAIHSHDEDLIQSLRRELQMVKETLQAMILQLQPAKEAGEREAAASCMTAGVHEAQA
Protocol: Stably DISC1-FLAG-expressing PC12 cells were stimulated with a nerve growth factor (NGF) (50 ng/ml) for 24 hours and collected. Lysates were immunoprecipitated by anti-FLAG antibody. Immunoprecipitated complexes were subjected to SDS-PAGE and blotted with anti-FEZ1 antibody. […] Cells were either unstimulated (b, e, h, k) or stimulated with NGF (50 ng/ml) for 24 hours (c, f, 1,1), and 48 hours (d, g, J, m) and their neurites were subsequently microscopically observed.
(§1) HEK293T cells were transfected with DISC1-FLAG and FEZ1-HA, individually or in combination. FLAG-tagged truncated forms of DISC1 mentioned in the Plasmids section were also transfected in combination with FEZ-HA. Cells were lysed in TNE buffer/1% NP40. Prepared lysates were incubated with anti-FLAG antibody for 2 hours at 4° C. and then with Protein Gagarose (Invitrogen) for 1 hour at 4° C. The agarose beads were then washed five times with TNE buffer. Immunoprecipitates were subjected to SDS-PAGE and blotted with anti-HA antibody. Conversely, immunoprecipitates with anti-HA antibody were blotted with anti-FLAG antibody. PC12 cells were transfected with FEZ1-HA or mock and then lysed in TNE buffer/1% NP40. Lysates were immunoprecipitated by anti-HA antibody. Immunoprecipitates were subjected to SDS-PAGE and blotted with anti-actin antibody. […]

[2] = molecular target: T2, DISC1/ΔBR-FLAG (deleted DISC1 that lacks the FEZ1-binding region, FLAG-tagged) (human, UniProt Q9NRI5 1-854); assay: co-immunoprecipitation from transfected HEK293T cells, anti-FLAG / anti-HA
T2 sequence: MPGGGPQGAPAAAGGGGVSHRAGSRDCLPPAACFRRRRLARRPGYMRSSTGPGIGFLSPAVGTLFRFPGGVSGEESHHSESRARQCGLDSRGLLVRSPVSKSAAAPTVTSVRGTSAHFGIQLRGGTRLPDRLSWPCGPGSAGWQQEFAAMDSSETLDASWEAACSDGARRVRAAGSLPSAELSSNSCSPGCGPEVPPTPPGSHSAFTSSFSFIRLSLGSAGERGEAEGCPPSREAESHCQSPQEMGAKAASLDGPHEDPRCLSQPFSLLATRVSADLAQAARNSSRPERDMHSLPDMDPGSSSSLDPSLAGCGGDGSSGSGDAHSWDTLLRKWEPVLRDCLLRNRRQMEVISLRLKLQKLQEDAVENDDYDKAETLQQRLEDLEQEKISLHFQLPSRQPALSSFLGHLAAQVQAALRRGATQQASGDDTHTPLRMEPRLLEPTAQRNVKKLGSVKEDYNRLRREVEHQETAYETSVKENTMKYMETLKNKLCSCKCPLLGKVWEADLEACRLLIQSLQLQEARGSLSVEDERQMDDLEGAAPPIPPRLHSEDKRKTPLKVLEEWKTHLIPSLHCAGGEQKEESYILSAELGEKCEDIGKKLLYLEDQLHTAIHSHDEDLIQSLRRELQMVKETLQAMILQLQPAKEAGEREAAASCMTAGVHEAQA
Protocol: (a) Yeast two-hybrid assay to determine the binding regions of FEZ1 (upper panel) and DISC1 (lower panel). Open bars indicate the FEZ1 clone obtained by the screening and DISC1 clone used as bait. Closed bars indicate shorter fragments. […] The α-galactosidase activity of yeast transformants were assayed. +++ indicates strongly positive as a positive control. ++, + and − indicate moderately positive, weakly positive and negative, respectively. (b) DISC1 coimmunoprecipitated with FEZ1. HEK293T cells were transfected with DISC1-FLAG and FEZ1-HA, individually or in combination. […] Immunoprecipitates by anti-FLAG or anti-HA antibody were blotted with the reciprocal antibody.
as §1, with “NP40.” for “NP40. Lysates were immunoprecipitated by anti-HA antibody. Immunoprecipitates were subjected to SDS-PAGE and blotted with anti-actin antibody.”

B1: endogenous FEZ1 of PC12 cells (other, rat, UniProt P97577 1-393, looked up)
chain: MEAPLVSLDEEFEDIRPCCTEDPEEKPQSLYGTSPHHLEDPSLSELENFSSEIISFKSMEDLVNEFDEKLNVCFRNYNAKTENLAPVKNQLQIQEEEETLRDEEVWDALTDNYIPSLSEDWRDPNIEALNGNSSDTEIHEKEEEDEFIEKSENDSGINEEPLLTADQVIEEIEEMMQNSPDPEEEVEVLEEEDGGEISSQADSVLLQEMQALTQTFNNNWSYEGLRHMSGSELTELLDQVEGAIRDFSEELVHQLARRDELEFEKEVKNSFITVLIEVQNKQKEQRELMKKRRKEKGLSLQSSRIEKGNQMPLKRFSMEGISNILQSGIRQTFGSSGADRQYLNTVIPYEKKSSPPSVEDLQMLTNILFAMKEDNEKVPTLLTDYILKVLCPT
B1: binds [1].

B2: FEZ1-HA (human FEZ1 with a C-terminal HA tag) (other, not shown: small tags and cut ends)
chain: MEAPLVSLDEEFEDLRPSCSEDPEEKPQCFYGSSPHHLEDPSLSELENFSSEIISFKSMEDLVNEFDEKLNVCFRNYNAKTENLAPVKNQLQIQEEEETLQDEEVWDALTDNYIPSLSEDWRDPNIEALNGNCSDTEIHEKEEEEFNEKSENDSGINEEPLLTADQVIEEIEEMMQNSPDPEEEEEVLEEEDGGETSSQADSVLLQEMQALTQTFNNNWSYEGLRHMSGSELTELLDQVEGAIRDFSEELVQQLARRDELEFEKEVKNSFITVLIEVQNKQKEQRELMKKRRKEKGLSLQSSRIEKGNQMPLKRFSMEGISNILQSGIRQTFGSSGTDKQYLNTVIPYEKKASPPSVEDLQMLTNILFAMKEDNEKVPTLLTDYILKVLCPT
notes: Expressed from pcDNA3.1(+) in HEK293T or PC12 cells; also called HA-tagged FEZ1; FEZ-HA
B2: no binding [2].

Reference: patent US20080107600A1 (published 2008)
